According to patent publication US12466853B2, “Selective targeting of apoptosis proteins by structurally-stabilized and/or cysteine-reactive NOXA peptides” (priority 2017, dated 2025):

Key:
[1] = target: T1, BFL-1ΔC C4S/C19S / FITC-BID BH3 (Homo sapiens, UniProt Q16548, C19S/C4S); experiment: Competitive fluorescence polarization binding assay, BFL-1ΔC C4S/C19S; conditions: fluorescence polarization competition
T1 construct: Recombinant anti-apoptotic BFL-1ΔC (aa 1-151) and its cysteine to serine mutants were cloned into PET17b; made in house; host or cells: Escherichia coli LOBSTR BL21(DE3)
T1 sequence (Q16548 1-151 C4S/C19S): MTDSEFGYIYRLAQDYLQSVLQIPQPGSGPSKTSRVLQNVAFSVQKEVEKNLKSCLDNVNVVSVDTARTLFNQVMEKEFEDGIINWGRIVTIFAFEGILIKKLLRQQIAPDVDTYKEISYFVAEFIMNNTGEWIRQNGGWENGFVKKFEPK
Experimental: (§1) Fluorescence polarization (FP) assays were performed as previously described (Pitter et al., 2008 (supra)). Briefly, direct binding curves were first generated by FITC-BID BH3 (25 nM) with serial dilutions of anti-apoptotic protein, and FP was measured at 5 min on a SpectraMax M5 microplate reader (Molecular Devices). For competition assays, a serial dilution of acetylated or warhead-bearing NOXA SAHB was added to the indicated recombinant protein at ˜EC75 concentration, as determined by the direct binding assay. FITC-BID BH3 (25 nM) was then added and fluorescence polarization was measured at equilibrium. IC50 values were calculated by nonlinear regression analysis of competitive binding curves using PRISM software (GraphPad).

[2] = target: T2, BCL-XLΔC / FITC-BID BH3 (Homo sapiens, UniProt Q07817); experiment: Competitive fluorescence polarization binding assay, BCL-XLΔC
T2 construct: Recombinant anti-apoptotic BCL-XLΔC (aa 1-212) and MCL-1ΔNΔC (aa 172-329); GST (N, cleaved yes); made in house; host or cells: Escherichia coli BL21(DE3)
T2 sequence (Q07817 1-212, stated change not applied): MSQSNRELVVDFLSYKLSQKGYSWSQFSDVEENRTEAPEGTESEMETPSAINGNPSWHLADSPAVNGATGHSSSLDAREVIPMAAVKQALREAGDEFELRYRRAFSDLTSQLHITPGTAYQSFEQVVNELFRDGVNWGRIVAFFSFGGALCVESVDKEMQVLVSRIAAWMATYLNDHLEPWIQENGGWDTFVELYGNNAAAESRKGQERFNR
Experimental: as §1

JAT8LREFGDXLNFRQ [D-NA-NOXA-15 R31E]
disruption of BFL-1ΔC C4S/C19S / FITC-BID BH3 interaction [1]: displays the ability to disrupt the interaction
competition for FITC-BID BH3 binding to BCL-XLΔC [2]: neither Ac- nor D-NA-NOXA-15 R31E is able to compete
